Test results published in patent US12503518B2, “Heparanase-neutralizing A54 monoclonal antibody” (TECHNION RESEARCH & DEVELOPMENT FOUNDATION LIMITED, priority 2020, dated 2025).

Key:
U87 glioma cells = assay: Matrigel invasion assay; format: cell-based, human; conditions: antibody 2 g, 6 h, vs control mouse IgG; p=0.001; FIG. 4C
Protocol: Matrigel invasion assay. Invasion assay was performed using modified Boyden chambers with polycarbonate Nucleopore membrane, essentially as described (Arvatz et al. 2011, ibid.). Briefly, filters (6.5 mm in diameter, 8 μm pore-size) were coated with Matrigel (30 μl); Cells (2×10^5) in 100 μl of serum-free medium were seeded in triplicate on the upper part of each chamber in the presence of the indicated antibody, and the lower compartment was filled with 600 μl medium supplemented with 10% FCS. After incubation for 5 h at 37° C. in a 5% CO2 incubator, non-invading cells on the upper surface of the filter were wiped with a cotton swab, and migrated cells on the lower surface of the filter were fixed, stained with 0.5% crystal violet (Sigma) and counted by examination of at least seven microscopic fields (Barash et al., J Natl Cancer Inst. 110:1102-1114, 2018).
Thereafter, the antibody effect on cell invasion was examined. Briefly, U87 glioma cells (1×10^5) were plated onto Matrigel-coated 8-μm Transwell filters in the presence of control mouse IgG or mAb A54 ([…]). Invading cells adhering to the lower side of the membrane were visualized after 6 h (FIGS. 4A-B) and quantified (FIG. 4C; number of invading cells per high power field; *p=0.001) as described in ‘Methods’.

LPS-induced sepsis = LPS-induced sepsis survival; format: in vivo, C57BL/6 mice; conditions: 500 μg/mouse 30 min before LPS (15 mg/kg, i.p.); monitored 8 days
Protocol: In subsequent studies, the effect of mAb A54 on LPS-induced sepsis, was investigated. C57BL/6 mice (n=8) were treated with A54 mAb (500 μg/mouse) or Roneparstat (SST) (1.2 mg/mouse) or PBS as control, 30 min before LPS injection (15 mg/kg, i.p.). SST was given once again (1.2 mg/mouse) 16 hours after LPS administration. Survival of mice was monitored every 12 h for 8 days (FIG. 10).

[1] = system: MPC-11 mouse myeloma cells; assay: MPC-11 myeloma tumor growth in syngeneic Balb/c mice; format: in vivo
Protocol: MPC-11 myeloma. Mouse MPC-11 myeloma cells are detached with trypsin/EDTA, washed with PBS, brought to a concentration of 5×10^5 cells/0.2 ml and inoculated subcutaneously at the right flank of 6-8-weeks-old Balb/c mice. Three days after cell inoculation, mice are randomly assigned to 2 cohorts (6 mice each) receiving (a) vehicle (PBS); and (b) A54 mAb (500 μg/mouse, 3 times/week. Xenograft size is determined on day 7, 10 and 14 by externally measuring tumors in 2 dimensions using a caliper. At the end of the experiment, mice are sacrificed and tumor xenografts are removed and weighed.
Briefly, Balb/c mice were inoculated (s.c.) with MPC-11 mouse myeloma cells (0.5×10^6). Treatment with mAb A54 (250 or 500 μg/mouse every other day) was initiated two days after cell inoculation. Control cells were administrated with PBS. Xenograft size was determined twice a week by externally measuring the tumors in two dimensions using a caliper, and tumor volume was calculated (FIG. 6A). At the end of the experiment (Day 14) xenografts were removed, weighed (FIG. 6B), fixed in formalin and photographed (FIG. 6C). […] The above results imply that the development of primary tumors can be restrained by the anti-heparanase mAb A54.

[2] = system: Luc-CAG human myeloma cells; assay: CAG myeloma tumor growth in NOD/SCID mice, IVIS imaging; format: in vivo; conditions: 500 μg/mouse, 3 times/week from day 3; evaluated 3 weeks later; vs PBS; P=0.02
Protocol: CAG myeloma. Luciferase-labeled CAG human myeloma cells (5×10^6) are injected into the tail vein of NOD/SCID mice. Three days after cell inoculation, mice are randomly assigned to 2 cohorts (5-10 mice each) receiving (a) vehicle (PBS); and (b) A54 mAb (500 μg/mouse, 3 times/week). Tumor development is inspected (once a week) by IVIS imaging following administration of luciferin (see below). At termination, mice are sacrificed the backbones are excised, fixed in formalin and following de-calcification with 10% EDTA solution are embedded in paraffin and subjected to histological and immunohistochemical analyses.
IVIS imaging. […] Imaging is performed in real time, is non-invasive and provides quantitative data. […] Light emitted from the bioluminescent cells is detected by the IVIS camera system with images quantified for tumor burden using a log-scale color range set at 5×10^4 to 1×10^7 and measurement of total photon counts per second (PPS) using Living Image software (Xenogen).
The ability of mAb A54 to attenuate myeloma tumor development over time was examined. […] Tumor growth was evaluated 3 weeks later by IVIS imaging (FIGS. 5A and 5B). Quantification of luciferase signals is also shown graphically (FIG. 5C). […]

B1: mAb A54: heparanase-neutralizing murine monoclonal antibody, IgG1-Kappa; VH SEQ ID NO: 7, VL SEQ ID NO: 8; binds HBD-II of heparanase (antibody, listed as Mus musculus, V domains shown)
VH: QVQLQQSGAELAKPGASVRMSCKASGYTFTNYWMHWVKQRPGQGLEWIGYINPTTGYTEYNQKFKDKATLTADKSSSTAYMQLSSLTSEDSAVYYCARGGAGYDYDEDYAMDYWGQGTSVTVSS
VL: DIVLTQSPASLAVSLGQRATISCRASESVEYFGTSYMNWYQQKPGQPPKLLIYLASILESGIPARFSGSGSGTDFTLNIHPVEEEDAATYYCQQSNEDPYTFGGGTKLEIK
attenuation of invasion of U87 glioma cells through Matrigel (U87 glioma cells): ~90%
survival after LPS injection (LPS-induced sepsis): effectively protects mice from LPS-induced sepsis
attenuation of myeloma tumor growth ([1]; 250 or 500 μg/mouse every other day from day 2, day 14, vs PBS): 4 fold
dose dependence of tumor growth attenuation ([1]; 250 vs 500 μg/mouse every other day): higher dose of antibody was more effective
myeloma growth rate (IVIS luciferase signal) [2]: marked reduction in the myeloma growth rate
